This note sets out measurements from patent US20040018971A1 (published 2004).

The target of test [1] is HLA-A*3101 (purified HLA class I molecule) (human). The test is described as follows: inhibition of 125I probe peptide binding to purified HLA; ratio to standard peptide.
In test [2] the target is HLA-A*6801 (purified HLA class I molecule) (human). The test is described as above.
Test [3] addresses HLA-A*1101 (purified HLA class I molecule) (human). Described as above.
Test [4] addresses T1, HLA-A*0301 (purified HLA class I molecule) (human).
T1 construct: also called A3
Described as above.

The target of test [5] is HLA-A*3301 (purified HLA class I molecule) (human). The test is described as follows: inhibition of 125I probe peptide binding to purified HLA; ratio to standard peptide; minus sign not explained.
A further test concerns the target T2, HLA-A*3101 (human).
T2 construct: The construct is not described
The test is described as follows: competition with 125I-labelled standard peptide for purified HLA, gel filtration. (In general: Size exclusion chromatography separates by hydrodynamic size, large species first.)

A further test has as its target T3, HLA-A*6801 (human).
T3 construct: The construct is not described
The description is as above.

The target in the next test is T4, HLA-A*1101 (human).
T4 construct: The construct is not described
The test is described as above.

The target of another test is T5, HLA-A*0301 (human).
T5 construct: also called A3
Described as above.

In the next test the target is T6, HLA-A*3301 (human).
T6 construct: The construct is not described
The test is described as above.

In test [6] the target is HLA-A*0203 (purified HLA class I molecule) (human). Described as above.
Test [7] addresses HLA-A*0206 (purified HLA class I molecule) (human). The description is as above.
The target in test [8] is HLA-A*6802 (purified HLA class I molecule) (human). Described as above.
Test [9] deals with T7, HLA-A*0201 (purified HLA class I molecule) (human).
T7 construct: also called HLA-A2.1
The test is described as above.

In test [10] the target is HLA-A*0202 (purified HLA class I molecule) (human). Described as above.
For a further test, the target named is HLA-DR3 (human). In words: competitive inhibition of 125I-labeled probe peptide binding to purified HLA-DR3.

As to GSGAFGTVYK (also called Her2/neu.727 (10-mer)) [HER2/neu peptide, position 727, 10 amino acids], the relative binding ratio in test [1] was 0.0014 ratio (IC50 standard / IC50 test); in test [2], 0.0012 ratio (IC50 standard / IC50 test); in [3], 0.13 ratio (IC50 standard / IC50 test); in [4], 0.066 ratio (IC50 standard / IC50 test); in test [5], -0.0013 ratio (IC50 standard / IC50 test).

B1: HER2/neu peptide, position 322, 9 amino acids (peptide)
peptide: VTAEDGTQR
notes: Synthetic peptide; also called Her2/neu.322 (9-mer)
Consider B1, for which the relative binding ratio with HLA-A*3101 was 0.0011 ratio (IC50 of standard peptide / IC50 of test peptide); with HLA-A*6801, 0.1 ratio (IC50 of standard peptide / IC50 of test peptide); with HLA-A*1101, 0.014 ratio (IC50 of standard peptide / IC50 of test peptide); with HLA-A*0301, 0.0002 ratio (IC50 of standard peptide / IC50 of test peptide); with HLA-A*3301, 0.0037 ratio (IC50 of standard peptide / IC50 of test peptide).

B2: HER2/neu peptide, position 799, 9 amino acids (peptide)
peptide: QLMPYGCLL
notes: Synthetic peptide; also called Her2/neu.799
In the case of B2, the “relative binding ratio (IC50 of standard peptide / IC50 of test peptide)” value in [6] is 0.088 ratio; in [7], 0.0052 ratio; in test [8], 0.0031 ratio; in test [9], 0.023 ratio; in test [10] it was 0.0044 ratio.
As to ARLLDIDETEYHADG [Her2/neu.867], the IC50 (in general, the concentration that inhibits the measured activity by half) with HLA-DR3 was less than 1000 nM.
